Data as given in patent publication US20250304650A1.
Numbering of substitutions follows the chain as printed. In names and notes the source's numbering stands. Several values for one entry are separate records, joined by “and”; a condition that tells them apart may be missing. Identical values can stand only once.

B1: anti-NGF feline IgG1a, Fc variant S434Y, S426L (antibody, part only; not given: anti-NGF variable domains, light chain, not shown: another chain or arm of the molecule; small tags and cut ends)
Fc: PPEMLGGPSIFIFPPKPKDTLSISRTPEVTCLVVDLGPDDSDVQITWFVDNTQVYTAKTSPREEQFNSTYRVVSVLPILHQDWLKGKEFKCKVNSKSLPSPIERTISKAKGQPHEPQVYVLPPAQEELSRNKVSVTCLIKSFHPPDIAVEWEITGQPEPENNYRTTPPQLDSDGTYFVYSKLSVDRSHWQRGNTYTCLVSHEALHYHHTQKSLTQSPGK
B2: wild-type feline IgG1a Fc (CH2 and CH3 domains) with SASA tag (Fc fusion, part only; not given: SASA tag, not shown: another chain or arm of the molecule; small tags and cut ends)
Fc: B1 Fc with L198S, Y206S
B3: anti-NGF feline IgG1a, Fc variant S252Y, Q311K (antibody, part only; not given: anti-NGF variable domains, light chain, not shown: another chain or arm of the molecule; small tags and cut ends)
Fc: B1 Fc with S22Y, Q81K, L198S, Y206S
B4: anti-NGF feline IgG1a, Fc variant S252W (antibody, part only; not given: anti-NGF variable domains, light chain, not shown: another chain or arm of the molecule; small tags and cut ends)
Fc: B1 Fc with S22W, L198S, Y206S
B5: anti-NGF feline IgG1a, Fc variant S428Y, Q311V (antibody, part only; not given: Anti-NGF variable domains, not shown: another chain or arm of the molecule; small tags and cut ends)
Fc: B1 Fc with Q81V, L198S, S200Y, Y206S
B6: feline IgG1a Fc variant S428M (CH2-CH3) with SASA tag (Fc fusion, part only; not given: SASA tag, not shown: another chain or arm of the molecule; small tags and cut ends)
Fc: B1 Fc with L198S, S200M, Y206S
B7: feline IgG1a Fc variant S434H (CH2-CH3) with SASA tag (Fc fusion, part only; not given: SASA tag, not shown: another chain or arm of the molecule; small tags and cut ends)
Fc: B1 Fc with L198S, Y206H
B8: anti-NGF feline IgG1a, Fc variant S428Y, Q311V, E380T (antibody, part only; not given: anti-NGF variable domains, not shown: another chain or arm of the molecule; small tags and cut ends)
Fc: B1 Fc with Q81V, E150T, L198S, S200Y, Y206S
B9: anti-NGF feline IgG1a, Fc variant T286E, S428R (antibody, part only; not given: anti-NGF variable domains, not shown: another chain or arm of the molecule; small tags and cut ends)
Fc: B1 Fc with T56E, L198S, S200R, Y206S
B10: anti-NGF feline IgG1a, Fc variant S428Y, L309V, E380T (antibody, part only; not given: anti-NGF variable domains, light chain, not shown: another chain or arm of the molecule; small tags and cut ends)
Fc: B1 Fc with L79V, E150T, L198S, S200Y, Y206S
B11: anti-NGF feline IgG1a, Fc variant S428Y, Q311V, T286E (antibody, part only; not given: anti-NGF variable domains, light chain, not shown: another chain or arm of the molecule; small tags and cut ends)
Fc: B1 Fc with T56E, Q81V, L198S, S200Y, Y206S
B12: feline IgG1a Fc variant S428Y (CH2-CH3) with SASA tag (Fc fusion, part only; not given: SASA tag, not shown: another chain or arm of the molecule; small tags and cut ends)
Fc: B1 Fc with L198S, S200Y, Y206S
B13: anti-NGF feline IgG1a, Fc variant S428Y, L309V, T286E (antibody, part only; not given: anti-NGF variable domains, not shown: another chain or arm of the molecule; small tags and cut ends)
Fc: B1 Fc with T56E, L79V, L198S, S200Y, Y206S
B14: anti-NGF feline IgG1a, Fc variant S252Y, Q311V (antibody, part only; not given: anti-NGF variable domains, light chain, not shown: another chain or arm of the molecule; small tags and cut ends)
Fc: B1 Fc with S22Y, Q81V, L198S, Y206S
B15: anti-NGF feline IgG1a, Fc variant S428Y, L309V (antibody, part only; not given: Anti-NGF variable domains, not shown: another chain or arm of the molecule; small tags and cut ends)
Fc: B1 Fc with L79V, L198S, S200Y, Y206S
B16: feline IgG1a Fc variant S434F (CH2-CH3) with SASA tag (Fc fusion, part only; not given: SASA tag, not shown: another chain or arm of the molecule; small tags and cut ends)
Fc: B1 Fc with L198S, Y206F
B17: feline IgG1a Fc variant S428L (CH2-CH3) with SASA tag (Fc fusion, part only; not given: SASA tag, not shown: another chain or arm of the molecule; small tags and cut ends)
Fc: B1 Fc with L198S, S200L, Y206S
B18: anti-NGF feline IgG1a, Fc variant S428Y (antibody, part only; not given: anti-NGF variable domains, not shown: another chain or arm of the molecule; small tags and cut ends)
Fc: B1 Fc with L198S, S200Y, Y206S
B19: feline IgG1a Fc variant S434W (CH2-CH3) with SASA tag (Fc fusion, part only; not given: SASA tag, not shown: another chain or arm of the molecule; small tags and cut ends)
Fc: B1 Fc with L198S, Y206W

Legend:
[1] = target: feline FcRn (FCN-F82W3, Acrobiosystems) (feline); assay: SPR Carterra, IgG coupled, pH 7.4
[2] = target: feline FcRn (FCN-F82W3, Acrobiosystems) (feline); assay: SPR Carterra, IgG coupled, pH 6.0
[3] = target: feline FcRn (IgG receptor FcRn large subunit p51 with feline beta-2-microglobulin) (feline); assay: SPR Biacore 8K, Fc captured by SASA tag on BSA, pH 6.0
[4] = target: feline FcRn (IgG receptor FcRn large subunit p51 with feline beta-2-microglobulin) (feline); assay: SPR Biacore 8K+, IgG on C1 chip, pH 5.9, 1:1 kinetic fit
[5] = target: feline FcRn (IgG receptor FcRn large subunit p51 with feline beta-2-microglobulin) (feline); assay: SPR Biacore 8K+, IgG on C1 chip, pH 5.9, kinetic fit (printed 1:4)

Binder	Kd [2] [nM]	koff [2] [s⁻¹]	kon [2] [M⁻¹ s⁻¹]	Kd [3]	koff [3]	kon [3]	Kd [4] [nM]	other results
B1	3	0.0044	1.48e+06	–	–	–	–	Kd [1]: 185 nM; koff [1]: 0.118 s⁻¹; kon [1]: 636000 M⁻¹ s⁻¹
B2	–	–	–	1190 nM and 1640 nM	0.374 s⁻¹ and 0.195 s⁻¹	314000 M⁻¹ s⁻¹ and 119000 M⁻¹ s⁻¹	–	–
B3	5.6	0.00779	1.39e+06	–	–	–	–	Kd [1]: 46.9 nM; koff [1]: 0.112 s⁻¹; kon [1]: 2.39e+06 M⁻¹ s⁻¹
B4	–	–	–	–	–	–	4.01	–
B5	10.9	0.00977	893000	–	–	–	32.2	–
B6	–	–	–	603 nM	0.1 s⁻¹	166000 M⁻¹ s⁻¹	–	–
B7	–	–	–	316 nM and 444 nM	0.0761 s⁻¹ and 0.0888 s⁻¹	241000 M⁻¹ s⁻¹ and 200000 M⁻¹ s⁻¹	–	–
B8	–	–	–	–	–	–	20.1	–
B9	6.9	0.00648	939000	–	–	–	–	Kd [1]: 12.3 nM; koff [1]: 0.113 s⁻¹; kon [1]: 9.17e+06 M⁻¹ s⁻¹
B10	–	–	–	–	–	–	20.6	–
B11	–	–	–	–	–	–	6.11	–
B12	–	–	–	528 nM and 565 nM	0.103 s⁻¹ and 0.105 s⁻¹	195000 M⁻¹ s⁻¹ and 187000 M⁻¹ s⁻¹	–	–
B13	–	–	–	–	–	–	–	Kd [5]: 5.26 nM
B14	3.8	0.00405	1.06e+06	–	–	–	–	Kd [1]: 306 nM; koff [1]: 0.0528 s⁻¹; kon [1]: 173000 M⁻¹ s⁻¹
B15	13.2	0.0112	847000	–	–	–	35.3	–
B16	–	–	–	41.7 nM and 43.3 nM	0.0158 s⁻¹ and 0.0161 s⁻¹	378000 M⁻¹ s⁻¹ and 371000 M⁻¹ s⁻¹	–	–
B17	–	–	–	485 nM and 763 nM	0.0788 s⁻¹ and 0.0803 s⁻¹	162000 M⁻¹ s⁻¹ and 105000 M⁻¹ s⁻¹	–	–
B18	25.6	0.0184	718000	–	–	–	71.8	–
B19	–	–	–	55.6 nM and 50.2 nM	0.0175 s⁻¹ and 0.0202 s⁻¹	314000 M⁻¹ s⁻¹ and 402000 M⁻¹ s⁻¹	–	–
